Assay results taken from patent US20230126400A1 (Alector, published 2023).
Values belong to the binder of their own block, whether it stands above or below them. Ends that are not written are not given here. * marks the point of attachment. Biotin = O=C1N[C@H]2[C@H](CS[C@H]2CCCCC(=O)*)N1

Assays:
[1] = target: T1, human MS4A4A ECL1 peptide (amino acid residues 86-98) (human); assay: peptide ELISA
T1 construct: synthetic peptide
T1 peptide: CMASNTYGSNPIS
Method in brief: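 Free or BSA-conjugated peptides were coated at 2 or 10 […] in 0.05M carbonate buffer, pH 9.6, overnight at 4 °C, then blocked 1 h with PBS+0.5% BSA+0.05% Tween20. Antibodies were bound 30 min at room temperature with shaking. TMB was developed 5-10 min, stopped, and absorbance read at 650 nm.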

[2] = target: T2, human MS4A4A ECL2 peptide (amino acid residues 159-179), free (human); assay: peptide ELISA, supernatant
T2 construct: synthetic peptide; also called huMS4A4A-ELC2 free-peptide
T2 peptide: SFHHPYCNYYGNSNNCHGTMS

human MS4A4A = human MS4A4A (human, UniProt Q96JQ5 1-239); assay: FACS, U937 cells, supernatant; U937 cells overexpressing h4A, ratio over parental U937; parental U937 itself scores +
Experimental: Positive clones identified in Example 22 above were expanded and then rescreened for specificity against U937, K562, and/or 300.19 cells stably overexpressing human MS4A4A or cyno MS4A4A and parental U937, K562, and/or 300.19 cells. These experiments were performed using supernatants from hybridoma clones which had undergone further expansion after initial selection. Briefly, stably transfected cells were labeled with LIVE/DEAD Fixable Aqua Dead Cell Stain Kit (ThermoFisher Scientific Cat#L34957) on ice for 30 minutes. […] 2×10⁵ cells were aliquoted per well in 96-well U-bottom plates and incubated with 50 μl of culture supernatant on ice for 30 minutes. […] Following this secondary incubation, the cells were again washed twice with ice-cold FACS buffer and resuspended in a final volume of 200 μl of FACS buffer. Analysis was performed on a FACS Canto system (BD Biosciences), with gates drawn to exclude dead (Aqua-positive) cells.
The APC ratio was calculated for each antibody as follows. […] For cell lines overexpressing human MS4A4A (h4A) or cyno MS4A4A (cy4A), the ration was calculated by comparing the binding measured to the binding observed on the corresponding parental cell lines.

[3] = target: T2, human MS4A4A ECL2 peptide (amino acid …); assay: array SPR (Carterra MX-96), antibody captured, peptide in solution
Experimental: Binding kinetic characterization of the anti-MS4A4A antibodies to MS4A4A ECL1 and ECL2 and to MS4A6A ECL1 and ECL2 peptides was performed by Carterra (South San Francisco, Calif.) using a proprietary array Surface Plasmon Resonance (SPR) instrument (MX-96) as follows. Antibodies were captured onto a CMD500D chip (Xantec # SPMX CMD500D) using the Continous Flow Microspotter (CFM). First, the chip was activated with 100 mM MES pH 5.5, 100 μL EDC (133 mM final), 100 μL of S-NHS (33.3 mM final), for 7 minutes. […] Anti-MS4A4A hydridoma supernatant or purified anti-MS4A4A antibodies were diluted in HBS-EP+ buffer (Teknova Cat # H8022) and then printed as duplicates with a 20 minute and a 5-minute print from the same sample solution.
These were then injected on the chip for five minutes, followed by a seven-minute dissociation period at 8 uL per second in a non-regenerative kinetic series. Duplicate measurements for each anti-MS4A4A antibody were taken to ensure reproducibility. Association rates (Kon) and dissociation rates (Koff) were calculated using a single one-to-one Langmuir binding model. The equilibrium dissociation constant (KD) was calculated as the ration of Koff/Kon.

peptide 4A.1 = target: T3, peptide 4A.1 (human); assay: array SPR, peptide on streptavidin chip
T3 construct: 15-mer of human MS4A4A
T3 peptide: Biotin-ITMMCMASNTYGSNP
Experimental: (§1) Epitope binding characteristics of anti-MS4A4A antibodies are determined by two complementary approaches. First, a panel of overlapping peptides derived from the extracellular loops (ECLs) of human MS4A4A (SEQ ID NO:1) and human MS4A6A (SEQ ID NO: 291) were synthesized by JPT peptides (Berlin, Germany). These peptides were 15 amino acids in length, each offset by 2 amino acids. The peptides were biotinylated on the N-terminus. […] Anti-MS4A4A antibodies of the present disclosure and commercially-available anti-MS4A4A antibodies were tested for binding to the various linear peptides by Carterra (South San Francisco, Calif., USA) using a proprietary array SPR instrument (MX-96).
(§2) The peptide library was printed onto a streptavidin-coated chip (Xantec SAD50M, Dusseldorf, Germany) using the Continuous Flow Microspotter (CFM). First, the chip was activated with 100 mM MES, pH 5.5, 100 μL EDC (133 mM final), 100 μL of S-NHS (33.3 mM final). The peptide library was immobilized onto the chip at 250 nM per peptide diluted into HBS-EP+buffer (Teknova Cat # H8022) with 1 mg/ml BSA and 1 μg/ml mouse IgG-Biotin. Following immobilization, the chip surface was deactivated with 1M ethanolamine at pH 8.5 for 10 minutes. Hybridoma supernatants and purified anti-MS4A4A antibodies were diluted in HBS-EP+buffer with 1 mg/ml BSA and injected onto the chip. Duplicate measurements for each anti-MS4A4A antibody were taken to ensure reproducibility. Binding characteristics were determined for each peptide-antibody combination, allowing the mapping of the linear peptide region each antibody interacts with.

peptide 4A.3 = target: T4, peptide 4A.3 (human); assay: array SPR, peptide on streptavidin chip
T4 construct: 15-mer of human MS4A4A
T4 peptide: Biotin-CMASNTYGSNPISVY
Experimental: as §1, §2

peptide 4A.12 = target: T5, peptide 4A.12 (human); assay: array SPR, peptide on streptavidin chip
T5 construct: 15-mer of human MS4A4A
T5 peptide: Biotin-GNSNNCHGTMSILMG
Experimental: as §1, §2

peptide 4A.9 = target: T6, peptide 4A.9 (human, cysteine pairing not given here); assay: array SPR, peptide on streptavidin chip
T6 construct: 15-mer of human MS4A4A
T6 peptide: Biotin-PYCNYYGNSNNCHGT
Experimental: as §1, §2

peptide 4A.8 = target: T7, peptide 4A.8 (human, cysteine pairing not given here); assay: array SPR, peptide on streptavidin chip
T7 construct: 15-mer of human MS4A4A
T7 peptide: Biotin-HHPYCNYYGNSNNCH
Experimental: as §1, §2

peptide 4A.6 = target: T8, peptide 4A.6 (human); assay: array SPR, peptide on streptavidin chip
T8 construct: 15-mer of human MS4A4A
T8 peptide: Biotin-FYSFHHPYCNYYGNS
Experimental: as §1, §2

peptide 4A.11 = target: T9, peptide 4A.11 (human); assay: array SPR, peptide on streptavidin chip
T9 construct: 15-mer of human MS4A4A
T9 peptide: Biotin-YYGNSNNCHGTMSIL
Experimental: as §1, §2

peptide 4A.5 = target: T10, peptide 4A.5 (human); assay: array SPR, peptide on streptavidin chip
T10 construct: 15-mer of human MS4A4A
T10 peptide: Biotin-LAFYSFHHPYCNYYG
Experimental: as §1, §2

peptide 4A.10 = target: T11, peptide 4A.10 (human, cysteine pairing not given here); assay: array SPR, peptide on streptavidin chip
T11 construct: 15-mer of human MS4A4A
T11 peptide: Biotin-CNYYGNSNNCHGTMS
Experimental: as §1, §2

peptide 4A.7 = target: T12, peptide 4A.7 (human); assay: array SPR, peptide on streptavidin chip
T12 construct: 15-mer of human MS4A4A
T12 peptide: Biotin-SFHHPYCNYYGNSNN
Experimental: as §1, §2

peptide 4A.4 = target: T13, peptide 4A.4 (human); assay: array SPR, peptide on streptavidin chip
T13 construct: 15-mer of human MS4A4A
T13 peptide: Biotin-ASNTYGSNPISVYIG
Experimental: as §1, §2

peptide 4A.2 = target: T14, peptide 4A.2 (human); assay: array SPR, peptide on streptavidin chip
T14 construct: 15-mer of human MS4A4A
T14 peptide: Biotin-MMCMASNTYGSNPIS
Experimental: as §1, §2

cynomolgus (cyno) MS4A4A = target: T15, cynomolgus (cyno) MS4A4A (cynomolgus); assay: FACS, HEK293, supernatant
T15 construct: also called cy4A; Cyno 4A

binding result [1]: no binding
binding result [2]: no binding
fold increase in MFI (human MS4A4A): > 2 fold
B1: anti-MS4A4A antibody 4A-219 (murine) (antibody, V domains shown)
VH: QVQMKQSGPGLVQPSQSLSITCTVSGFSLTSYGVHWVRQSPGKGLEWLGVIWSGGSTDYNAAFISRLSISKDNSKSQVFFKMNSLQADDTAIYYCVRLYYGYDGFAYWGQGTLVTVSS
VL: DIVMTQSHKFMSTSVGDRVSITCKASQDVSTAVAWYQQKPGQSPKLLIYSASYRYTGVPDRFTGSGSGTDFTFTISSVQAEDLAVYYCQQHYSTPLTFGAGTKLELK
notes: murine hybridoma antibody

Kd [3]: 31 nM
koff [3]: 0.0078 s⁻¹
kon [3]: 250000 M⁻¹ s⁻¹
binding result [1]: no binding
SPR binding signal (peptide 4A.1): -11.2
SPR binding signal (peptide 4A.3): -10.6
SPR binding signal (peptide 4A.12): -5.2
SPR binding signal (peptide 4A.9): 225
SPR binding signal (peptide 4A.8): 309
SPR binding signal (peptide 4A.6): 486
SPR binding signal (peptide 4A.11): -6.5
SPR binding signal (peptide 4A.5): 383
SPR binding signal (peptide 4A.10): -4.5
SPR binding signal (peptide 4A.7): 446
SPR binding signal (peptide 4A.4): -7.9
SPR binding signal (peptide 4A.2): -11.5
Cyno 4A:parental cell ratio (cynomolgus (cyno) MS4A4A): 1.31 ratio
B2: anti-MS4A4A antibody 4A-21 (murine) (antibody, IgG1, V domains shown)
VH: QIQLVQSGPELKKPGETVKISCKASGYIFTSYGLSWVKQTPGKGLKWMGWINTYSGVPTYANDFKGRFAFSLETSASTTYLRINNLKNDDTATYFCARSLVDYWGQGTPLTVSS
VL: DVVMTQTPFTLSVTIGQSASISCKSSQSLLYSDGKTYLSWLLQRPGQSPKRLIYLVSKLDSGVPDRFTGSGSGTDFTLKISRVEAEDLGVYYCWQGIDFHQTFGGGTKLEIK
notes: murine hybridoma antibody, msIgG1; also called 4A-21 (msIgG1)
